# Source: PMC9352680, “A comprehensive thermodynamic model for RNA binding by the Saccharomyces cerevisiae Pumilio protein PUF4”
# T1: PUF4 RNA-binding domain (Saccharomyces cerevisiae, UniProt P25339 537-888)
# T1 sequence: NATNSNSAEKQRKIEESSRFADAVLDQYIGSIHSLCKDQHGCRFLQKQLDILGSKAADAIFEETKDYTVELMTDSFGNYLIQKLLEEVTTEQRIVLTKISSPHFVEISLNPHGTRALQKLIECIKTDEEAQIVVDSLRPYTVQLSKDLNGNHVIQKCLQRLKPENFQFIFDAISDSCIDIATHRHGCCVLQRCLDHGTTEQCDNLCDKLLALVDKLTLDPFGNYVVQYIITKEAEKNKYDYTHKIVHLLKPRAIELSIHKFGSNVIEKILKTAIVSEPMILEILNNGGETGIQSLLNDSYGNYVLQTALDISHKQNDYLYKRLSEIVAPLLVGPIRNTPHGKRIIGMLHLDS
# Molecular target: T1, PUF4 RNA-binding domain
# Assay: Mg; RNA-MaP; 20 mM Na-HEPES pH 7.4, 30 mM KOAc, 0.75 mM MgCl2, 0.1% Tween-20, 5% glycerol, 0.1 mg/mL BSA, 2 mM DTT; 25 C; 0.0125-409.6 nM protein
# Conditions: tags: N-His6-TEV cleaved; C-SNAP kept, Cy3B-labelled; label: tethered on chip by stalled RNA polymerase
row,Binder,Kd [nM]
1,UCUCUUUGUCUUAUAAUCUCUU (ssRNA) [Ib_S1_P5E.1_K5.1_C5.1_H5.1_[A4C]_A5.1_F5.1_[T9A]_T5.1],102
2,UCUCUUUGUAUUAUUCUCUCUU (ssRNA) [Ia_S1_P5E.1_K5.1_C5.1_H5.1_A5.1_F5.1_[A10C]_T5.1],16.4
3,UCUCUUUGUCUUAUCAUCUCUU (ssRNA) [Ib_S1_P5E.1_K5.1_C5.1_H5.1_[A4C]_A5.1_F5.1_[T9C]_T5.1],2040
4,UCUCUUUGUUUUAUGAUCUCUU (ssRNA) [Ib_S1_P5E.1_K5.1_C5.1_H5.1_[A4T]_A5.1_F5.1_[T9G]_T5.1],981
5,UCUCUUUGUGUUAUAAUCUCUU (ssRNA) [Ib_S1_P5E.1_K5.1_C5.1_H5.1_[A4G]_A5.1_F5.1_[T9A]_T5.1],57.8
6,Id_ii_S2_P4E.2_K4.1_C4.2_[C-2G]_[T-1G]_H4.1_A4.1_F4.1_T4.2_[G10T] (ssRNA) RNA: UUUGAUUAAUAUGAUAUCGUUCUUUCUGGUGUAUAUUAUUUUCUUUCUCGAUAUCAUAUUAAUCUUU,0.435
7,Id_ii_S2_P4E.2_K4.1_C4.2_[C-2G]_[T-1G]_H4.1_A4.1_F4.1_T4.2_[G10A]_[T11A] (ssRNA) RNA: UUUGAUUAAUAUGAUAUCGUUCUUUCUGGUGUAUAUUAAAUUCUUUCUCGAUAUCAUAUUAAUCUUU,1.5
8,Id_ii_S2_P4E.2_K4.1_C4.2_[C-2G]_[T-1C]_H4.1_A4.1_F4.1_T4.2_[G10C] (ssRNA) RNA: UUUGAUUAAUAUGAUAUCGUUCUUUCUGCUGUAUAUUACUUUCUUUCUCGAUAUCAUAUUAAUCUUU,0.667
9,Id_ii_S2_P4E.2_K4.1_C4.2_[C-2G]_[T-1C]_H4.1_A4.1_F4.1_T4.2_[G10A]_[T11A] (ssRNA) RNA: UUUGAUUAAUAUGAUAUCGUUCUUUCUGCUGUAUAUUAAAUUCUUUCUCGAUAUCAUAUUAAUCUUU,0.738
10,Id_ii_S2_P4E.2_K4.1_C4.2_[C-2G]_H4.1_A4.1_F4.1_T4.2_[G10C]_[T11C] (ssRNA) RNA: UUUGAUUAAUAUGAUAUCGUUCUUUCUGUUGUAUAUUACCUUCUUUCUCGAUAUCAUAUUAAUCUUU,1.8
11,Id_ii_S2_P4E.2_K4.1_C4.2_[C-2G]_H4.1_A4.1_F4.1_T4.2_[G10T]_[T11G] (ssRNA) RNA: UUUGAUUAAUAUGAUAUCGUUCUUUCUGUUGUAUAUUAUGUUCUUUCUCGAUAUCAUAUUAAUCUUU,0.585
12,Id_ii_S2_P4E.2_K4.1_C4.2_[C-2G]_[T-1C]_H4.1_A4.1_F4.1_T4.2_[G10T] (ssRNA) RNA: UUUGAUUAAUAUGAUAUCGUUCUUUCUGCUGUAUAUUAUUUUCUUUCUCGAUAUCAUAUUAAUCUUU,0.289
13,Id_ii_S2_P4E.2_K4.1_C4.2_[C-2G]_[T-1C]_H4.1_A4.1_F4.1_T4.2_[G10T]_[T11G] (ssRNA) RNA: UUUGAUUAAUAUGAUAUCGUUCUUUCUGCUGUAUAUUAUGUUCUUUCUCGAUAUCAUAUUAAUCUUU,0.82
14,Id_ii_S2_P4E.2_K4.1_C4.2_[C-2G]_[T-1C]_H4.1_A4.1_F4.1_T4.2_[G10A] (ssRNA) RNA: UUUGAUUAAUAUGAUAUCGUUCUUUCUGCUGUAUAUUAAUUUCUUUCUCGAUAUCAUAUUAAUCUUU,0.535
15,Id_ii_S2_P4E.2_K4.1_C4.2_[C-2G]_[T-1C]_H4.1_A4.1_F4.1_T4.2_[G10T]_[T11A] (ssRNA) RNA: UUUGAUUAAUAUGAUAUCGUUCUUUCUGCUGUAUAUUAUAUUCUUUCUCGAUAUCAUAUUAAUCUUU,0.822
16,Id_ii_S2_P4E.2_K4.1_C4.2_[C-2G]_[T-1C]_H4.1_A4.1_F4.1_T4.2_[G10C]_[T11C] (ssRNA) RNA: UUUGAUUAAUAUGAUAUCGUUCUUUCUGCUGUAUAUUACCUUCUUUCUCGAUAUCAUAUUAAUCUUU,1.25
17,Id_ii_S2_P3E.4_K3.3_C3.2_[C-2A]_[T-1C]_H3.3_A3.1_F3.1_T3.2_[T9C]_[A10T] (ssRNA) RNA: UUUGAUUAAUAUGAUAUCGUUCUUUCUACACACUAUACUUUCUUUCUCGAUAUCAUAUUAAUCUUU,1810
18,Id_ii_S2_P3E.4_K3.3_C3.2_H3.3_A3.1_F3.1_T3.2_[T9A] (ssRNA) RNA: UUUGAUUAAUAUGAUAUCGUUCUUUCUCUACACUAUAAAUUCUUUCUCGAUAUCAUAUUAAUCUUU,454
19,Id_ii_S2_P3E.4_K3.3_C3.2_[C-2A]_[T-1A]_H3.3_A3.1_F3.1_T3.2_[T9A]_[A10T] (ssRNA) RNA: UUUGAUUAAUAUGAUAUCGUUCUUUCUAAACACUAUAAUUUCUUUCUCGAUAUCAUAUUAAUCUUU,> 2300
20,Id_ii_S2_P3E.4_K3.3_C3.2_[C-2A]_[T-1A]_H3.3_A3.1_F3.1_T3.2_[A10C] (ssRNA) RNA: UUUGAUUAAUAUGAUAUCGUUCUUUCUAAACACUAUAUCUUCUUUCUCGAUAUCAUAUUAAUCUUU,1770
21,Id_ii_S2_P3E.4_K3.3_C3.2_[T-1G]_H3.3_A3.1_F3.1_T3.2_[A10T] (ssRNA) RNA: UUUGAUUAAUAUGAUAUCGUUCUUUCUCGACACUAUAUUUUCUUUCUCGAUAUCAUAUUAAUCUUU,1500
22,Id_ii_S2_P3E.4_K3.3_C3.2_[C-2A]_H3.3_A3.1_F3.1_T3.2_[T9C]_[A10G] (ssRNA) RNA: UUUGAUUAAUAUGAUAUCGUUCUUUCUAUACACUAUACGUUCUUUCUCGAUAUCAUAUUAAUCUUU,116
23,Id_ii_S2_P3E.4_K3.3_C3.2_[C-2A]_[T-1A]_H3.3_A3.1_F3.1_T3.2_[T9C]_[A10G] (ssRNA) RNA: UUUGAUUAAUAUGAUAUCGUUCUUUCUAAACACUAUACGUUCUUUCUCGAUAUCAUAUUAAUCUUU,> 2300

row,Binder,Kd [nM]
1,Id_ii_S2_P3E.4_K3.3_C3.2_[C-2A]_H3.3_A3.1_F3.1_T3.2_[T9C]_[A10C] (ssRNA) RNA: UUUGAUUAAUAUGAUAUCGUUCUUUCUAUACACUAUACCUUCUUUCUCGAUAUCAUAUUAAUCUUU,15.5
2,Id_ii_S2_P3E.4_K3.3_C3.2_H3.3_A3.1_F3.1_T3.2_[A10T] (ssRNA) RNA: UUUGAUUAAUAUGAUAUCGUUCUUUCUCUACACUAUAUUUUCUUUCUCGAUAUCAUAUUAAUCUUU,399
3,Id_ii_S2_P3E.4_K3.3_C3.2_[T-1C]_H3.3_A3.1_F3.1_T3.2_[T9C]_[A10T] (ssRNA) RNA: UUUGAUUAAUAUGAUAUCGUUCUUUCUCCACACUAUACUUUCUUUCUCGAUAUCAUAUUAAUCUUU,1080
4,Id_ii_S2_P3E.4_K3.3_C3.2_[T-1A]_H3.3_A3.1_F3.1_T3.2_[T9G]_[A10C] (ssRNA) RNA: UUUGAUUAAUAUGAUAUCGUUCUUUCUCAACACUAUAGCUUCUUUCUCGAUAUCAUAUUAAUCUUU,> 2300
5,Id_ii_S2_P3E.4_K3.3_C3.2_[C-2A]_[T-1C]_H3.3_A3.1_F3.1_T3.2_[T9A] (ssRNA) RNA: UUUGAUUAAUAUGAUAUCGUUCUUUCUACACACUAUAAAUUCUUUCUCGAUAUCAUAUUAAUCUUU,1070
6,Id_ii_S2_P3E.4_K3.3_C3.2_[C-2A]_H3.3_A3.1_F3.1_T3.2_[T9A] (ssRNA) RNA: UUUGAUUAAUAUGAUAUCGUUCUUUCUAUACACUAUAAAUUCUUUCUCGAUAUCAUAUUAAUCUUU,27.3
7,Id_ii_S2_P3E.4_K3.3_C3.2_H3.3_A3.1_F3.1_T3.2_[T9A]_[A10T] (ssRNA) RNA: UUUGAUUAAUAUGAUAUCGUUCUUUCUCUACACUAUAAUUUCUUUCUCGAUAUCAUAUUAAUCUUU,776
8,Id_ii_S2_P3E.4_K3.3_C3.2_[T-1A]_H3.3_A3.1_F3.1_T3.2_[A10T] (ssRNA) RNA: UUUGAUUAAUAUGAUAUCGUUCUUUCUCAACACUAUAUUUUCUUUCUCGAUAUCAUAUUAAUCUUU,1130
9,Id_ii_S2_P3E.4_K3.3_C3.2_[T-1A]_H3.3_A3.1_F3.1_T3.2_[T9C]_[A10G] (ssRNA) RNA: UUUGAUUAAUAUGAUAUCGUUCUUUCUCAACACUAUACGUUCUUUCUCGAUAUCAUAUUAAUCUUU,> 2300
10,Id_ii_S2_P3E.4_K3.3_C3.2_[C-2A]_[T-1C]_H3.3_A3.1_F3.1_T3.2_[A10T] (ssRNA) RNA: UUUGAUUAAUAUGAUAUCGUUCUUUCUACACACUAUAUUUUCUUUCUCGAUAUCAUAUUAAUCUUU,868
11,Id_ii_S2_P3E.4_K3.3_C3.2_H3.3_A3.1_F3.1_T3.2_[T9G]_[A10C] (ssRNA) RNA: UUUGAUUAAUAUGAUAUCGUUCUUUCUCUACACUAUAGCUUCUUUCUCGAUAUCAUAUUAAUCUUU,1600
12,Id_ii_S2_P3E.4_K3.3_C3.2_[T-1A]_H3.3_A3.1_F3.1_T3.2_[T9A]_[A10T] (ssRNA) RNA: UUUGAUUAAUAUGAUAUCGUUCUUUCUCAACACUAUAAUUUCUUUCUCGAUAUCAUAUUAAUCUUU,> 2300
13,Id_ii_S2_P3E.4_K3.3_C3.2_[T-1C]_H3.3_A3.1_F3.1_T3.2 (ssRNA) RNA: UUUGAUUAAUAUGAUAUCGUUCUUUCUCCACACUAUAUAUUCUUUCUCGAUAUCAUAUUAAUCUUU,194
14,Id_ii_S2_P3E.4_K3.3_C3.2_[T-1C]_H3.3_A3.1_F3.1_T3.2_[T9C]_[A10C] (ssRNA) RNA: UUUGAUUAAUAUGAUAUCGUUCUUUCUCCACACUAUACCUUCUUUCUCGAUAUCAUAUUAAUCUUU,1460
15,Id_ii_S2_P3E.4_K3.3_C3.2_H3.3_A3.1_F3.1_T3.2_[A10C] (ssRNA) RNA: UUUGAUUAAUAUGAUAUCGUUCUUUCUCUACACUAUAUCUUCUUUCUCGAUAUCAUAUUAAUCUUU,343
16,Id_ii_S2_P3E.4_K3.3_C3.2_[T-1C]_H3.3_A3.1_F3.1_T3.2_[T9A]_[A10T] (ssRNA) RNA: UUUGAUUAAUAUGAUAUCGUUCUUUCUCCACACUAUAAUUUCUUUCUCGAUAUCAUAUUAAUCUUU,1890
17,Id_ii_S2_P3E.4_K3.3_C3.2_[C-2A]_H3.3_A3.1_F3.1_T3.2_[T9A]_[A10T] (ssRNA) RNA: UUUGAUUAAUAUGAUAUCGUUCUUUCUAUACACUAUAAUUUCUUUCUCGAUAUCAUAUUAAUCUUU,32.2
18,Id_ii_S2_P3E.4_K3.3_C3.2_[C-2A]_H3.3_A3.1_F3.1_T3.2_[T9A]_[A10G] (ssRNA) RNA: UUUGAUUAAUAUGAUAUCGUUCUUUCUAUACACUAUAAGUUCUUUCUCGAUAUCAUAUUAAUCUUU,174
19,Id_ii_S2_P3E.4_K3.3_C3.2_[C-2A]_[T-1A]_H3.3_A3.1_F3.1_T3.2_[T9A] (ssRNA) RNA: UUUGAUUAAUAUGAUAUCGUUCUUUCUAAACACUAUAAAUUCUUUCUCGAUAUCAUAUUAAUCUUU,2020
20,Id_ii_S2_P3E.4_K3.3_C3.2_[C-2A]_H3.3_A3.1_F3.1_T3.2_[A10C] (ssRNA) RNA: UUUGAUUAAUAUGAUAUCGUUCUUUCUAUACACUAUAUCUUCUUUCUCGAUAUCAUAUUAAUCUUU,11.8
21,Id_ii_S2_P3E.4_K3.3_C3.2_[C-2A]_H3.3_A3.1_F3.1_T3.2_[T9C] (ssRNA) RNA: UUUGAUUAAUAUGAUAUCGUUCUUUCUAUACACUAUACAUUCUUUCUCGAUAUCAUAUUAAUCUUU,21.7
22,Id_ii_S2_P3E.4_K3.3_C3.2_[T-1A]_H3.3_A3.1_F3.1_T3.2_[T9C]_[A10T] (ssRNA) RNA: UUUGAUUAAUAUGAUAUCGUUCUUUCUCAACACUAUACUUUCUUUCUCGAUAUCAUAUUAAUCUUU,> 2300
23,Id_ii_S2_P3E.4_K3.3_C3.2_[T-1A]_H3.3_A3.1_F3.1_T3.2_[T9C]_[A10C] (ssRNA) RNA: UUUGAUUAAUAUGAUAUCGUUCUUUCUCAACACUAUACCUUCUUUCUCGAUAUCAUAUUAAUCUUU,2100
